Positions count from the first letter of the chain named. Names may count otherwise. Where no end group is shown, it is not given here.

One test has as its target MLLT3 (Homo sapiens) (UniProt P42568). The settings on record: cited from earlier work.
In the next test the target is T1, MBP-AF9 (WT) (UniProt P42568 1-568).
T1 sequence (looked up): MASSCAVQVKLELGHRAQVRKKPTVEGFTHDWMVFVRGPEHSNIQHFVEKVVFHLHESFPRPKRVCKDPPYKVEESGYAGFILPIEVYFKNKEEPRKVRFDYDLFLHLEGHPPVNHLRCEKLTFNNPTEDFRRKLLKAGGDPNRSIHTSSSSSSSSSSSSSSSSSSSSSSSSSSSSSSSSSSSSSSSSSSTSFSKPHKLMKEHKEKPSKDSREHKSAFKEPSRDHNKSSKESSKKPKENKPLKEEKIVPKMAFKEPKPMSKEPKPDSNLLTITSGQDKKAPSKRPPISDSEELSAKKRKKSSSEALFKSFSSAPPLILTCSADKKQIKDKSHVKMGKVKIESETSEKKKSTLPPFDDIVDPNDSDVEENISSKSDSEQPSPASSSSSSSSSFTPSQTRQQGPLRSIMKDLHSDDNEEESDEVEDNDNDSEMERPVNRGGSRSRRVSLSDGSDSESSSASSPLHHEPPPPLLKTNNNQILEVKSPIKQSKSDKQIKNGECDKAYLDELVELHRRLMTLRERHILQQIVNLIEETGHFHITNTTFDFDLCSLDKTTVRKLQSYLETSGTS
The experiment in a line: other fluorescence titration.

The next test addresses T2, MBP-AF9 (D544R) (UniProt P42568 1-568, D544R).
T2 sequence (looked up): T1 sequence (looked up) with D544R
The experiment in a line: other fluorescence titration.

Chain of AFF1 (P51825 whole entry): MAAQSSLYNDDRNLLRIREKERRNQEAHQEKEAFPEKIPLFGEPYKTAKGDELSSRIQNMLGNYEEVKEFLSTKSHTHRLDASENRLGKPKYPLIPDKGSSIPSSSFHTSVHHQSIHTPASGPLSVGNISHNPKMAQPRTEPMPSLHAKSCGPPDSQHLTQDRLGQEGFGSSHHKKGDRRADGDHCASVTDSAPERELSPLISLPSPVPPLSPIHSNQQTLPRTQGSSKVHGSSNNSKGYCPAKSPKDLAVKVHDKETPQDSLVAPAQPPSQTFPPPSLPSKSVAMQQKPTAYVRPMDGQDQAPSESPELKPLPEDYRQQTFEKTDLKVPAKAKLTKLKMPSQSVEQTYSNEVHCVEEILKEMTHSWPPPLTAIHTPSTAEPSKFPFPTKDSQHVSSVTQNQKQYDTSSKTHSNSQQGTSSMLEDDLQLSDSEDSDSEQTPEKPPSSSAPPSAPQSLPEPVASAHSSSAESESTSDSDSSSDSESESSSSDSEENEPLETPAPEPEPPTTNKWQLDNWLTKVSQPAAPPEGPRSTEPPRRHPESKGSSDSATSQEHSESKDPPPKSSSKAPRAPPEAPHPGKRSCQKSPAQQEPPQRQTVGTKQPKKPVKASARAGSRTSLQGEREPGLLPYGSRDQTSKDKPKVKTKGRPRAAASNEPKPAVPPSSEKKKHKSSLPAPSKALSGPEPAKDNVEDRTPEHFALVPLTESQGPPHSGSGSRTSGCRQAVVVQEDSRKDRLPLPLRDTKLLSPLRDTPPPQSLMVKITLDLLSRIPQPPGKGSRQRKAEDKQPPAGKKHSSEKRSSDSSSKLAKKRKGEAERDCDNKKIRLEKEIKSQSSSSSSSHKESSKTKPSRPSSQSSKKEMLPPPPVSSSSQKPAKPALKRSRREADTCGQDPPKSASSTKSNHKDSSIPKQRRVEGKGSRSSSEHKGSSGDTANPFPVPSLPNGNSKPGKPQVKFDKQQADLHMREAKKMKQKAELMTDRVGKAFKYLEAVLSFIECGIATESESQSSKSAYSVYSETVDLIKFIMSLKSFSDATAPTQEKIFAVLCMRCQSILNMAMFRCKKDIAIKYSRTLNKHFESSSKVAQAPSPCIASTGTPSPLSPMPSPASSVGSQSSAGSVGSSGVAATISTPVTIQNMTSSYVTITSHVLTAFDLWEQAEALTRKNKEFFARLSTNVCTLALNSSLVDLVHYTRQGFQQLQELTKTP

Broadly, the Kd is a measure of binding affinity in units of concentration. As for AFF1 (from UniProt P51825), in the test with MLLT3 (Homo sapiens), the Kd was 0.17 nM.

In the case of LIVDIDLNLLTRIP (also: fluorescein (position not given here)) [Fluorescein AFF4 (K717D) peptide], the Kd is 37.4 nM with MBP-AF9 (WT) and 0.21 nM with MBP-AF9 (D544R).

Consider LIVKIDLNLLTRIP (also: fluorescein (position not given here)) [Fluorescein AFF4 (WT) peptide], for which the Kd with MBP-AF9 (WT) came to 0.2 nM.
